Experimental data: US20130059772A1, “Use of Repeat Sequence Protein Polymers in Personal Care Compositions” (DANISCO US INC., priority 2003, published 2013)
Several values for one entry are separate records, joined by “and”; a condition that tells them apart may be missing. Equal values may be shown once.

Key:
[1] = Tensile mechanical properties of films (INSTRON Model 5564); format: physicochemical
Experimental: In this Example, experiments performed to determine tensile mechanical properties of SELP47K (Example 1 and 2) are described. Samples of SELP47K were prepared by freeze-drying purified SELP47K solution. The subsequent powder was re-dissolved in water to a solids concentration of approximately 5, 10 or 20%. These solutions were then mixed with plasticizers to an effective concentration of 1-3%. Plasticizers included in this study were polyethylene glycol 200, glycerin, and triethanolamine. Eleven milliliters of these solutions were poured into a large (6 inch square) polyethylene weigh boats and the solutions were allowed to dry either in an oven at 37° C. or room temperature for 1 to 3 days. Subsequent films were successfully peeled from the weigh boat with a spatula without any damage to the polymer film.
The films were then cut into tensile specimens using a very sharp fabric cutting wheel. The specimens were approximately 6 cm long and 2.5 cm wide. The gauge length for these samples (length of sample between tensile testing clamps) was set to 3 cm and the thickness of the sample was measured at 5 points along the gauge length using a digital thickness coating instrument. The thickness of the samples was recorded as the average of the 5 points and varied from 46.4 to 188.2 microns. Both the sample width and sample thickness were entered into an Instron software program (Merlin) to enable it to calculate the tensile strength and tensile modulus.
The samples were loaded into the jaws of an INSTRON® Model 5564 apparatus making sure the gauge length was always set to 3 cm and that the sample was not under any static load or stress. […] The results of the stress-strain measurements can be seen for four of the samples in FIG. 1. The elongation % of SELP47K was determined to be 8.4 for 20% SELP47K solution film made at room temperature (RM). The tensile strength was determined to be 65.9 megapascals (MPa), and the tensile modulus was determined to be 1716.50 MPa. The results of plastisizer-SELP47K films reveal strong correlation between concentration and mechanical properties measured. For 3% PEG200 containing SELP47K, the films elongation % reached 541.

[2] = Cloud point determination (turbidity at 300 nm, 20-80° C.); format: physicochemical
Experimental: The cloud point of SELP47K was determined by first preparing 0.1% and 1% solutions of polydispersed SELP 47K (Example 2) in three different buffers: 50 mM acetate pH 5; 50 mM Tris pH 7; 50 mM Tris pH 9. A 0.5 M NaCl salt solution was prepared in water and salt containing solutions were prepared using this stock solution. Samples were placed in quartz cuvettes and the cloud point determination was carried out using a Cary 300 spectrophotometer equipped with a thermal program and multiple cuvettes configuration. Turbidity measurements were made at 300 nm and the temperature was varied from 20-80° C.

[3] = Water solubility of SELP47K films; format: physicochemical
Text: The coating appeared to be comprised of densely packed intertwining strands. […] Short, single/double strands of material were found in areas where the coating appeared to be less concentrated. Individual strands of material could be seen in the less concentrated, gray areas on the wafer. SEM analysis of the films provide the basis of water-solubility of SELP47K films.

[4] = tested on: facial skin; assay: Skin efficacy study: image analysis of Silflo replicas (fine line factors); format: in vivo, human
Text: Eleven impaneled subjects (age 35-70 years) showing clear signs of facial skin aging were provided with a non-moisturizing soap, ([…]®), one week prior to the study and were instructed to use the provided soap to wash the face and were required to refrain from excessive UV exposure. After a seven-day conditioning phase, subjects were acclimated to the ambient temperature and humidity for thirty minutes. One side of the face of each subject was designated as the measurement side by random selection by computer. After 30-minute acclimation period, baseline digital photographs were taken, and instrumental measurements, skin replica samples and visual evaluations were made. Photographs were taken, with a Canfield Scientific Camera, of the full face, the periorbital area, and the temporal side of eye. Chromameter (Model CR300, Minolta) measurements were taken from the periorbital area directly under the eye (Chardon et al., Int. J. Cosmet. Sci., 13:191-208 [1991]). Silflo replicas (CuDerm Corporation, Dallas, Tx) were made from the periorbital area adjacent to the temporal side of the eye (Grove et al., J. Am. Acad. Dermatol., 21:631-637 [1998]; and Sun et al […] Conference, Mexico). […] Specifically, the fine line factors, which approximate the number and/or length of facial lines in the 10 evaluated bands of skin replica, were measured. […]

[5] = Example 1 Material [GC2596-26-A], film from 05% sol., 37 C.
[6] = Example 1 Material [GC2596-26-A], film from 05% sol., RM
[7] = Example 1 Material [GC2596-26-A], film from 10% sol., 37 C.
[8] = Example 1 Material [GC2596-26-A], film from 10% sol., RM
[9] = Example 1 Material [GC2596-26-A], film from 20% sol., 37 C.
[10] = Example 1 Material [GC2596-26-A], film from 20% sol., RM
[11] = Example 2 Material [GC2596-26-B], film from 10% sol., 37 C.

Substance: SELP47K: silk-elastin repeat sequence protein copolymer, head-[(GAGAGS)2(GVGVP)3GKGVP(GVGP)4(GAGAGS)2]13-tail (SEQ ID NO:19), 886 amino acids
- Tensile Strain [1, 5]: 2.6%
- Tensile Strength [1, 5]: 19.83 MPA
- Tensile Strain [1, 6]: 2.4%
- Tensile Strength [1, 6]: 21.43 MPA
- Tensile Strain [1, 7]: 3.6%
- Tensile Strength [1, 7]: 62.06 MPA
- Tensile Strain [1, 8]: 3.5%
- Tensile Strength [1, 8]: 62.98 MPA
- Tensile Strain [1, 9]: 8.6%
- Tensile Strength [1, 9]: 74.14 MPA
- Tensile Strain (elongation %) [1, 10]: 8.4%
- Tensile Strength [1, 10]: 65.9 MPA and 65.90 MPA
- Tensile Strain [1, 11]: 6.98%
- Tensile Strength [1, 11]: 39.34 MPA
- tensile modulus ([1]; film from 20% SELP47K solution made at room temperature (RM)): 1716.50 MPa
- cloud point ([2]; 0.1% solution, 0.5 M NaCl, irrespective of pH): 50 °C
- cloud point ([2]; 0.1% solution, pH 5): remained soluble even at 80 °C
- cloud point ([2]; 0.1% solution, pH 9): 60 °C
- cloud point ([2]; 1% solution in water): 70 °C
- cloud point ([2]; 1% solution, 0.5 M salt, irrespective of pH): 55 °C
- cloud point ([2]; 1% solution, 5-9 pH range): ~65 °C
- cloud point ([2]; 1% solution, pH 5 buffer, 0.2 M salt): 65 °C
- cloud point ([2]; 1% solution, pH 5 buffer, 0.5 M salt): below 60 °C
- cloud point ([2]; 1% solution, pH 5 buffer, no salt): 75 °C
- water solubility of film ([3]; film made out of 10% SELP47K solution): water-soluble
- water solubility of film ([3]; film made out of 20% SELP47K solution): water insoluble
- Fine Line Factors, Mean ([4]; 5% aqueous solution applied once to face, 30 Minutes Post, baseline mean 284): 246
- decrease in fine line factors ([4]; 5% aqueous solution, 30 minutes after application vs baseline, p=0.05): 13%
